Reference: the RNAGym collection of RNA variant scans (doi:10.7554/elife.90254)

B1: LINE1-full (parent)
chain: UACGUAGGUGGUUUUCCCCUGAUAGUGCUAAGGGGGCCUGGAAGUUUGGACUGGGCAGAGCUCAACACAGCGUGGCAAAGUGGCUGUGGCUAGACUGCCUCUCUGGAUUCCUCGUCACUCAGCAGGGCAUCUCUGAGAGAAAUGCC

Variants of: B1
Experiment: self-cleavage, relative activity (ratio to wild type); higher = more cleavage; in vitro, sequencing; the parent is a self-cleaving ribozyme

Variant	self-cleavage
A78G G105A	1.8
A78G C95U	0.1
U81G U119C	1.54
U81C A121G	1.38
A78C U96A	0.14
A79G U115C	1.32
G82A U132C	2.22
A79G A107U	1.41
U81A U115A	2.46
U81A U115C	2.44
U81C G127U	1.22
A79U A94U	0.25
A79U A94G	0.26
G82C U119A	2.14
A78G A92U	0.64
A78G A92G	0.11
A77U U134G	1.47
G82A U119A	1.96
G82A U102A	2.12
U81A G127A	1.72
G83A A138G	0.73
G80C U108C	0
A78U G89C	0.08
A78U G89A	0.07

Variant	self-cleavage
U81A U91C	0.77
U81G A92G	0.24
U81C G83A	1.46
U81G	1.32
U81A	1.89
U81C	1.37
U81A U85A	0.09
A78G G126U	1.75
U81A C145A	2.25
U81A C146U	1.56
A79U A107G	2.26
A78G C113U	0.93
A79U U85A	0.07
A79G U81G	0.43
A79G G88A	0.03
G80U G144A	1.57
G82A G114U	2.07
A79U C110A	1.64
G80A U91A	0.76
A78U U119A	1.82
G80C U96G	0.09
A78G C116A	0.87
G82A C84U	0.51
U81A A141G	1.85

Variant	self-cleavage
A78G A142G	1.21
A79G G97A	0.08
G82A A124G	1.3
A79G A117U	1.06
A78G A138U	1
A78U U87G	0.23
A79U A124U	0.67
A79U A124G	0.87
A78U C99U	1.07
A78G A129G	1.65
A78G A129C	1.96
G82A U108C	2.48
U81G A117U	1.32
A78U U81C	1.6
G80C U132C	1.84
A79G C146U	1.3
A79C U119C	1.82
U81A G126U	2.04
A79G C133A	1.12
A78G U102A	1.24
G80A U104A	1.86
A79U A141G	1.71
A79U U87A	0.05
U81A A138C	2.3

Variant	self-cleavage
U81A A138G	2.16
U81C U108C	1.95
G82A U87C	0.17
U81C A140G	1.07
A78G C145U	1.28
U81G U104A	1.23
U81C A94C	0
U81C A94G	0.37
U81C A94U	0.37
U81C U143A	1.22
U81C C128U	1.19
A78U U108C	2.87
U81A U130C	2.43
U81C C90U	0.03
U81C U87C	0.4
A79U A136U	2.6
A79U A136G	1.96
A78C U100C	2.41
U81C U112A	1.42
U81C A129U	1.48
G80U U109C	1.21
A78G A136U	1.79
A78G A136G	1.45
A78C U91C	1.24

Variant	self-cleavage
A78U C110U	1.28
A79G A121G	1.21
U81C U132C	1.61
U81A A142G	2.07
A79C U108C	2.12
A79G A136U	0.91
A79G A141G	1.35
U81G U87A	0.15
G83A A107G	0.91
A79G U91C	0.45
A78G U96C	0.1
A79U G137A	1.87
A79G C90A	0.04
A79G A124U	1.19
G82A A138U	1.9
G82A A138G	2.26
G80A A121G	2.16
A79U A140G	1.85
A79G A129G	1.62
U81A U96C	0.13
U81A U96A	0.07
U81C G86U	0.13
A78G U104A	1.25
U81A A129U	2.57

Variant	self-cleavage
G82A A94U	0.33
A78G U85C	0.11
A78G U85G	0.18
A79U U91A	0.58
A79U U119C	2.41
G82U A141G	1.54
A79U C111G	2.75
A78G A117C	1.69
A78G A117U	1.6
U81G A136G	1.65
U81C A117G	1.21
A79U U112A	1.97
G80A A140U	1.58
U81C U100A	1.05
A77U U130C	1.56
A77U U130A	1.01
A79U G135C	2.76
A79C U100C	2.76
G83A G97C	0.18
A78U U96C	0.17
G80U A141G	1.1
G80U A141U	1.68
A78G G89A	0.04
A78C	2.41

Variant	self-cleavage
A78G	1.23
A78U	1.92
U81A C133U	1.95
U81A A124G	1.55
U81A A124C	2.45
A78G G97U	0.03
A78G G97A	0.11
A79C U96C	0.11
A79G G83A	1.03
A79U U130C	2.63
A78G G86U	0.08
A78G G86A	0.05
A79G U109G	0.8
U81C U119A	1.59
A79G C99U	0.38
G83A A121G	0.98
G82U U115C	0.84
G82A U96A	0.05
G82A U143C	2.03
A78C A141G	1.74
U81C U104A	1.07
A78G U134C	1.49
U81C U130G	1.84
A78G C133U	1.27

Variant	self-cleavage
U81C C116A	0.59
U81C C116U	1.14
A78U U91C	1.13
A78U U91A	0.85
A79G U132A	1.25
A79G U132C	1.43
U81G A140G	1.4
G80U U87C	0.2
G80U U87A	0.08
A79G C128U	0.92
A78G G106U	0.66
A79G U119A	1.06
U81G A129G	1.48
U81C G105A	1.06
G80A A124G	1
A79G G93U	0.06
A79G G93A	0.04
G83A	0.86
A78G A107U	1.26
A78G A107G	1.26
A79G U96G	0.16
A77U U119C	1.58
U81A U112A	1.7
A79U A138G	1.76

Variant	self-cleavage
A78U A140G	1.96
A78U A140C	2.32
A78U G114A	1.75
A78G A141U	1.66
A78G A141G	1.38
G83A A94U	0.24
A78U U112C	1.91
A78G U143C	1.18
A78G U143A	1.11
G80U U102A	1.34
G82A G86U	0.1
A79G A142G	1.12
A79G U100C	1.46
U81C U102C	0.72
U81C U102A	1.05
U81A C120U	0.99
U81A C120A	2.51
A79G G106U	1.48
A78U A129G	2.49
A79G A94U	0.26
A79U U100G	1.24
A79U U100C	2.92
G83A U85C	0.09
A79G U134A	1.07

Variant	self-cleavage
U81C A142C	1.18
U81C A142G	1.38
G80U U130C	0
A79G C113U	0.75
A79G G89C	0.05
A79G G89A	0.03
A78U U85A	0.11
U81C U85A	0.16
A79G U130G	2.51
A79G U130C	1.45
A79U A121G	1.58
G82U A92U	0.43
A79G U102G	0.49
U81C U115C	1.39
U81C U115A	1.44
U81C U115G	1.1
A78C A124G	0.94
U81A U132A	1.7
U81A U132C	2.25
A79U U81C	0.4
G82A U130A	1.97
U81A A117G	2.29
U81A A117U	1.94
G82U U143C	1.72

Variant	self-cleavage
G82U U134G	1.3
A79U U132A	1.83
A79U U132C	2.24
A78U U109A	1.84
A79U U102C	1.04
U81C A136G	1.12
G80U U100C	1.02
A79G C120G	1.08
A79G C120U	1.26
A79U A129G	2.13
G82A A140G	0.93
U81C C95A	0.03
U81G U134A	1
G80A U81C	1.98
A79G A138G	1.22
A79G A138U	0.85
A79C U87A	0.18
A79G G144A	1.5
A78U U104G	0.55
A78U A94U	0.3
A78U A94G	0.46
A78G G122A	0.65
A78G U91A	0.38
U81C A138G	1.14

Variant	self-cleavage
A78G U119A	1.33
A78G U119C	1.55
U81C A92G	0
U81C A92U	0.95
U81A C103A	1.98
U81A C103U	0.63
G80C A107G	1.52
G80A U96C	0.18
G80U	1.36
G80A	1.93
G80C	1.4
A78U U134A	2.08
A78U U134C	2.05
G83A A136G	1.05
U81G U100C	1.43
A78U U132C	1.92
U81A G83U	1.3
A78C A136G	2.92
U81A U134G	0.65
U81A U134A	2.49
A79G U143A	1.52
A79G U85A	0.08
A79G U85G	0.11
A79G U85C	0.11

Variant	self-cleavage
G82A G126U	2.04
A78U U100C	2.81
A79G G86A	0.09
A78C C90U	0.03
A77U U143A	1.18
U81C G122U	1.14
A78G A124U	1.45
A78G C111U	0.93
G82A A107G	1.73
U81A G88A	0.06
G82A G105A	1.95
A79G U112C	1.74
U81A A136U	2.35
U81A A136G	1.9
A79U U104C	2.47
G80A G144A	1.66
A79G C95U	0.08
A79G C98A	0.2
A79G C98U	0.45
U81A U109C	1.98
A79G G139U	1.19
A78G U115A	1.12
A78C U119C	2.95
A78U A138G	2.06

Variant	self-cleavage
A78U A138U	2.15
G80A A117G	2.22
A79U G89C	0.02
A79U G89U	0.03
G82U U102C	1.45
U81A U100A	2.09
A79G U87C	0.17
A79G U87A	0.06
A78G U81A	0.47
A79U A142G	2.33
A78G A79G	1.14
U81A G89A	0
U81A U119C	2.53
U81A U119A	2.53
U81G A107G	1.01
A78U U130A	2.96
G80A A107G	2.12
A78G U112C	1.24
A78G U112A	0.7
U81C C133A	0.9
U81A U143C	1.95
U81C A107G	1.21
